Residue numbers refer to the chain shown, from its start.

Test [1] deals with T1, HLA-B*35:01_… (HLA-PEPTIDE target G5), recombinant soluble complex (human, UniProt P01889 25-297 at identity 0.94); P61769 21-119, enzymatically biotinylated (BirA) for screening and functional assays). The test can be described thus: scFv PPE ELISA.
Test [2] concerns the target T2, HLA-A*01:01_… (HLA-PEPTIDE target G2), recombinant soluble complex (human, UniProt P04439-2 25-297; P61769 21-119, enzymatically biotinylated (BirA) for screening and functional assays). The test can be described thus: BLI (Octet), biotinylated pHLA on streptavidin sensors, Fab in solution.
Test [3] concerns the target T3, HLA-A*02:01_… (HLA-PEPTIDE target G8), recombinant soluble complex (human, UniProt P04439 25-297 at identity 0.94); P61769 21-119, enzymatically biotinylated (BirA) for screening and functional assays).
T3 construct: Also crystallised with Fab G8-P1C11
Nature of the test: BLI (Octet), biotinylated pHLA on streptavidin sensors; printed under the Fab sensorgrams, the sheet does not say which format or fit gave the bivalent value. (In general: In BLI a coated tip is dipped into the sample, and binding shifts an interference pattern.)

Test [4] addresses T3, HLA-A*02:01_… (HLA-PEPTIDE target G8), …. Nature of the test: BLI Octet, pHLA on streptavidin sensor, 1:1 fit.
The target of test [5] is T2, HLA-A*01:01_… (HLA-PEPTIDE target G2), …. Nature of the test: BLI Octet, pHLA on streptavidin sensor, 1:1 fit.
In test [6] the target is HLA-A*01:01_… (G2) on K562 cells (human). The test can be described thus: flow cytometry, HLA-A*01:01-transduced K562 cells pulsed with target peptide, IgG titration. (Flow cytometry measures light scatter and fluorescence of single cells or particles in a stream.)
Test [7] addresses T4, HLA-A*01:01_… (G10) on cells (human).
T4 construct: also called G10-presenting K562 cells; Colo829
Nature of the test: flow cytometry histogram, IgG at 30 µg/mL on HLA-A*01:01-transduced K562 cells pulsed with 50 µM ….

For test [8], the target named is T1, HLA-B*35:01_… (HLA-PEPTIDE target G5), …. Nature of the test: BLI Octet, pHLA on streptavidin sensor, 1:1 fit.
Test [9] shares this target. The test can be described thus: BLI (Octet), biotinylated pHLA on streptavidin sensors; printed under the Fab sensorgrams, the sheet does not say which format or fit gave the bivalent value [cont'd].
The target of test [10] is T3, HLA-A*02:01_… (HLA-PEPTIDE target G8), …. The description is as above.

B1: scFv G5R4-P1H11 (scFv, V domains shown)
VH: EVQLLESGGGLVKPGGSLRLSCAASGFTFSDYYMSWVRQAPGKGLEWVSYISSSSSYTNYADSVKGRFTISRDDSKNTLYLQMNSLKTEDTAVYYCARDVVANFDYWGQGTLVTVSS
VL: EIVMTQSPATLSVSPGERATLSCRASQSVSSNLAWYQQKPGQAPRLLIYAASARASGIPARFSGSGSGTEFTLTISSLQSEDFAVYYCQQYGSWPRTFGQGTKVEIK
Turning to B1, the “fold binding to target pHLA over minipool of negative control pHLAs” value (shortened to “fold binding to target pHLA”) in test [1] is at least 3 fold.

B2: scFv G5-P4B02 (scFv, V domains shown)
VH: QVQLVQSGAEVKKPGASVKVSCKASGYTFTGYYMHWVRQAPGQGLEWMGWMNPNIGNTGYAQKFQGRVTMTRDTSTSTVYMELSSLRSEDTAVYYCARGIADSGSYYGNGRDYYYGMDVWGQGTTVTVSS
VL: DIVMTQSPDSLAVSLGERATINCKTSQSVLYRPNNENYLAWYQQKPGQPPKLLIYQASIREPGVPDRFSGSGSGTDFTLTISSLQAEDVAVYYCQQYYTTPYTFGQGTKLEIK
B2: the “fold binding to target pHLA” value in test [1] is at least 3 fold.

B3: scFv G5R4-P1D06 (scFv, V domains shown)
VH: QVQLVQSGAEVKKPGASVKVSCKASGYTFTSYDINWVRQAPGQGLEWMGWINPNSGDTKYSQKFQGRVTMTRDTSTSTVYMELSSLRSEDTAVYYCARDGTRYYGMDVWGQGTTVTVSS
VL: not shown
Turning to B3, the “fold binding to target pHLA” value in [1] is at least 3 fold.

B4: Fab G2-P1H11 (Fab, V domains shown)
VH: QVQLVQSGAEVKKPGASVKVSCKASGYTFTNYYMHWVRQAPGQGLEWMGMINPSGGGTSYAQKFQGRVTMTRDTSTSTVYMELSSLRSEDTAVYYCARGNPWELRLDYWGQGTLVTVSS
VL: DIQMTQSPSSLSASVGDRVTITCQASQDISNYLNWYQQKPGKAPKLLIYAASSLQSGVPSRFSGSGSGTDFTLTISSLQPEDFATYYCQQYYSYPFTFGPGTKVDIK
notes: Fab
With B4, in [2], the Kd turned out to be 46.1 nM, the off-rate (koff) was 0.0233 s⁻¹ and the kon is 527000 M⁻¹ s⁻¹.

B5: Fab G8-P1B03 (Fab, V domains shown)
VH: EVQLLESGGGLVQPGGSLRLSCAASGFTFSDYYMSWVRQAPGKGLEWVSGINWNGGSTGYADSVKGRFTISRDNSKNTLYLQMNSLRAEDTAVYYCARVEQGYDIYYYYYMDVWGKGTTVTVSS
VL: B4 VL with Q24R, D28S, N31S, A50K, Q55E, Y91S, Y94A, F96Y
notes: Fab from HEK293
With B5, the “Apparent KD (bivalent)” value in test [3] is 3.54 nM. In addition, in test [4], the equilibrium dissociation constant (Kd) is 307 nM, the koff was determined as 0.0511 s⁻¹ and the kon amounted to 167000 M⁻¹ s⁻¹.

B6: Fab G2-P2C06 (Fab, V domains shown)
VH: QVQLVQSGAEVKKPGASVKVSCKSSGYSFDSYVVNWVRQAPGQGLEWMGWINPNSGGTNYAQKFQGRVTMTRDTSTSTVYMELSSLRSEDTAVYYCARDWVLDYWGQGTLVTVSS
VL: B4 VL with Q24R, D28T, N31S, Y32W, N34A, Y91S, Y94T
notes: Fab
Consider B6, for which, in [5], the Kd came out at 30.6 nM, the dissociation rate constant (koff) was 0.0348 s⁻¹ and the kon worked out at 1.14e+06 M⁻¹ s⁻¹.

B7: scFv G5R4-P3G05 (scFv, V domains shown)
VH: QVQLVQSGAEVKKPGASVKVSCKASGYTFTNYYMHWVRQAPGQGLEWMGIINPSGGSTSYAQKFQGRVTMTRDTSTSTVYMELSSLRSEDTAVYYCARSWFGGFNYHYYGMDVWGQGTTVTVSS
VL: B4 VL with Q27E, Y32H, A50D, S52L, Y91A, Y92N, Y94F
For the molecule B7, in test [1], the “fold binding to target pHLA” value is at least 3 fold.

B8: IgG G2-P1H11 (antibody, V domains shown)
VH: B4 VH
VL: B4 VL
As to B8, the binding result in test [6] is “binds”.

B9: scFv G5-P3G08 (scFv, V domains shown)
VH: QVQLVQSGAEVKKPGASVKVSCKASGYIFRNYPMHWVRQAPGQGLEWMGWINPDSGGTKYAQKFQGRVTMTRDTSTSTVYMELSSLRSEDTAVYYCARDNGVGVDYWGQGTLVTVSS
VL: B4 VL with Q24R, D28G, N34A, Y91S, S93I, Y94T, F96Y, P100Q, V104L, D105E
Consider B9, for which, in [1], the “fold binding to target pHLA” value was at least 3 fold.

B10: Fab G8-P4F05 (Fab, V domains shown)
VH: QVQLVQSGAEVKKPGASVKVSCKASGYTFSNMYLHWVRQAPGQGLEWMGWINPNTGDTNYAQTFQGRVTMTRDTSTSTVYMELSSLRSEDTAVYYCARGLYGDYFLYYGMDVWGQGTKVTVSS
VL: B4 VL with Q24R, D28G, N34A, S53T, Y91S, Y94T, F96L, P100G, D105E
notes: Fab from HEK293; also called R3G8-P4F05
For B10, the “Apparent KD (bivalent)” value in test [3] turned out to be 7.9 nM. Also, in test [4], the Kd is 984 nM, the koff was determined as 0.063 s⁻¹ and the kon turned out to be 64000 M⁻¹ s⁻¹.

B11: IgG G10-P1B07 (antibody, V domains shown)
VH: QVQLVQSGAEVKKPGASVKVSCKASGYTFTSYYMHWVRQAPGQGLEWMGIIHPGGGTTSYAQKFQGRVTMTRDTSTSTVYMELSSLRSEDTAVYYCARDKVYGDGFDPWGQGTLVTVSS
VL: DIQMTQSPSSLSASVGDRVTITCRASQSISRWLAWYQQKPGKAPKLLIFDASRLQSGVPSRFSGSGSGTDFTLTISSLQPEDFATYYCQQAEAFPYTFGQGTKVEIK
notes: IgG; also called R3G10-P1B07
Turning to B11, in test [7], the binding result was “binds”.

B12: Fab G5-P1C12 (Fab, V domains shown)
VH: QVQLVQSGAEVKKPGSSVKVSCKASGGTFSNFGVSWLRQAPGQGLEWMGGIIPILGTANYAQKFQGRVTITADESTSTAYMELSSLRSEDTAVYYCATPTNSGYYGPYYYYGMDVWGQGTTVTVSS
VL: B11 VL with R31S, F49Y, D50A, R53T, A91S, E92Y, A93S, F94I, Y96L, Q100G
notes: Fab from HEK293
With B12, in [8], the Kd came to 85.9 nM and the koff is 0.0158 s⁻¹. Also, the “Apparent KD (bivalent)” value in [9] was 0.378 nM.

B13: scFv G5-P4E04 (scFv, V domains shown)
VH: QVQLVQSGAEVKKPGASVKVSCKASGGTFSSYGISWVRQAPGQGLEWMGWINPNSGVTKYAQKFQGRVTMTRDTSTSTVYMELSSLRSEDTAVYYCARGDYYFDYWGQGTLVTVSS
VL: B11 VL with W32F, A34N, F49Y, D50G, L54P, A91S, E92Y, A93S, F94T, Y96L
As to B13, the “fold binding to target pHLA” value in [1] was at least 3 fold.

B14: scFv G5R4-P4B01 (scFv, V domains shown)
VH: QVQLVQSGAEVKKPGSSVKVSCKASGGTFSSYAISWVRQAPGQGLEWMGGIIPIVGTANYAQKFQGRVTITADESTSTAYMELSSLRSEDTAVYYCARGGSYYYYGMDVWGQGTTVTVSS
VL: not shown
Regarding B14, in test [1], the “fold binding to target pHLA” value is at least 3 fold.

B15: Fab G8-P5G08 (Fab, V domains shown)
VH: B10 VH with S30T, N31S, M32N, L34M, I51M, T55S, D57N, N59G, T63K, K118T
VL: not shown
notes: Fab from HEK293; also called R3G8-P5G08
B15: in test [4], the Kd worked out at 530 nM, the koff came to 0.0528 s⁻¹ and the kon turned out to be 99700 M⁻¹ s⁻¹. Also, the “Apparent KD (bivalent)” value in [10] was 6.65 nM.

B16: scFv G5R4-P2B10 (scFv, V domains shown)
VH: QVQLVQSGAEVKKPGASVKVSCKASGGTFSSYAISWVRQAPGQGLEWMGWMNPDSGSTGYAQRFQGRVTMTRDTSTSTVYMELSSLRSEDTAVYYCARGHSSGWYYYYGMDVWGQGTTVTVSS
VL: not shown
Regarding B16, the “fold binding to target pHLA” value in test [1] is at least 3 fold.

Broadly, the Kd is the constant that tells how readily two partners part at equilibrium. What is called koff is the first-order rate constant of dissociation. What is called kon is the second-order rate constant of association.
